Test: soluble on expression in E. coli; label from the status in PepcDB or PDB records

Row | Sequence | soluble on expression in E. coli
1 | MAVYLDFENHIKEIQNEIELALIRGDEDAKEILEKRLDKEVKSIYSNLTDFQKLQLARHPDRPYAMDYIDLILKDKYEVFGDRHYNDDKAIVCFVGKIDNVPVVVIGEEKGRGTKNKLLRNFGMPNPCGYRKALKMAKFAEKFNLPILMLVDTAGAYPGIGAEERGQSEAIAKNLQEFASLKVPTISVIIGEGGSGGALAIAVADKLAMMEYSIFSVISPEGCAAILWDDPSKTEVAIKAMKITPRDLKEAGLIDDIILEPSKGAHRDKFSAANTIKEYFLDALRTIQQDPHFLDNRYQKLMSLGSFVESMN | soluble
2 | GPGPAIGEVIGISVNDPRVKEIAEFALKQHAEQNLILAGVDAGQIIKGIPHWDNYYNLILSAKHSPHEFSKFYNVVVLEKASDNSLKLVAFVPLF | soluble
3 | MLGSRNIKFSVQIFKKRRSNCNVRCVVCGREIETGSLCGKCMVEKEEVAKIDEFEITVCSRCNLIRLGNRWVERSVEEVIEEMVLRNARVVEEFNVTEVAISQEHCVFRGEISGDEVKILVPLKYRINKVLCEKCSREAGGYYESIVQLRAAGRELSDEEIEKALEIVDEVISSAPEDQKAFISKLERKREGVNIFFGSRNIGKKVSRMIMKKLGGSITESKKLHTRIDGRDVYRFTYSVKLPEYREGDIVEKEGRFAVVRNSVAGKGLDILTGKTVNLGNERVAVRREDLKSGVVVNADPNAVEVVCEDGRLVTTPKPSGAEIGAEVKVFEINGKFFSVYEGGQSSEELEHHHHHH | soluble
4 | MQTYGGGWVLFQNRFDDSESYWDRKWDEYKNGFGDVDENSNFWLGNEALHVMTTNKKVTLRVEMYGDRTPNSKNATDFWFGHYFDFQVGSKTQNYPLLDLTMDWANPIGNASTAWYDLTCSIGSPFSTIDNIHDPVKECVTKFQMG | not soluble
5 | MGSDKIHHHHHHDEEPKSSLTLDTYYKTSADIIGNVNYLYRDGAPDKMGNMTGAYRGSSLSVMNMVTGYFVNEYEGQEVDCSYARQLTRQNFTQSCCNYLTNDTWKGCYKSINVANAVIKYVDGVEMDGQAQYKAEARFFRALNYFYLVKMFGDVPMITEPTEDATLVEYPARTAASEVYKTVIIPDLQFAVENLPDATFAGNSHRVTKYAADMLLADVYMRLGEYANAITPLKDVINSGKFALATNDNLAEGSAFNKLRTTDDLPEVIYAREYDAAISPNGNIPVHAFNLISPTFFANSSTGNKYSLWVNVYGVSERYLNVYGEKDLRAQMNQFFHRTYTHPVDGTTLDMKMLCNWYWYDETAILETGKGTKDWNFYRYAETLLSAAEAIAQSSGVNAEAAGYLAQVKARANMEGKDVSTIASELQRLGKQAFIEECWKERLREFPLEMKIWDDCVRTGKFPQISATNKGEVQFVDLIGATNGSGAKFKETDLYWPIPVNEIQRNPNLTQNEGYSAK | not soluble
6 | MGSDKIHHHHHHMPMNIVQVIPSFNVGGGELLAVRLCAEIKNQRPDYKVTLISLYDPIPSIVYDEALASDAQIVTLGKKKGFDPFTPLRMLKTLRAIKPDVIHTHLAGLRYTLLAGVLGNYSLKVHTVHNLATHETFGFLKNVHRVAFKFFSWIPVSLSKEVQDSVRDMYCLESVIVNNGIKTNSEIINKSKEDIRKHYGLPLNSKIIITIGRLCTQKNQLLLIESFNKVCKNAENYTLLIVGEDNLNGSYKNKIDKIISELPDITRENLHLLGPRKDIPELLIASDVFVLSSDWEGVPLTLLEAMGYGTPVVCTSVGGIPDVIEHGFDGLLVSKGDSKSLGNAIIEVLSNNSFASSLAHNARKKFSQLYSIEMTAEKYLQLYNA | not soluble
7 | MTIDLNAMLAKRAEVLGEGNKFDVKLGNKTFYFVAPELASSEWNDRHQAFLEDIRDGLMTSATAREEFLGLALEDQAEEFAEAADNIGVDPFIIAQMAFQEHAEYVGKTQSQKSLNRTQRRAKQR | not soluble
8 | GPGSMLEEVLKCYEEMKDPAAHQLAEAALPKLMEALGEESENSVMEVMLRCIGRCVSVHPAIMSPTNTALVCDKVMAALEVVVKRRNECLQKKATENDEDELDALEVEDEEVHLTISSMCDLIGTLLAASKEVFAAPFLEKAFPVLGEWLQASTDDFYMTRAAGILSDFVTHAPQSIVPSLPQICASSLTIASSSSDDGLLQSDFYLMNVIVQLLGSHATTNMGVDGGEYAVHVQQVAEKYFSSNLVNQEEYTHCTCNVISLYVSLLNFYGTTVLQQAATSMLTVVGKALPAKDDEIEARRIHDVVLGWVTNNHPVLQALPGSTAGFLTCVKAASPNCLSEQAKQYLASM | soluble
9 | MKKVVAVVKLQLPAGKATPAPPVGPALGQHGANIMEFVKAFNAATANMGDAIVPVEITIYADRSFTFVTKTPPASYLIRKAAGLEKGAHKPGREKVGRITWEQVLEIAKQKMPDLNTTDLEAAARMIAGSARSMGVEVVGAPEVKDA | soluble
10 | MTKTSKASGLSWFFCDLDGTLLRYQNNQHLIEPTTKRAVAQLVESGANFVVATGRKPSDVRNIYKELGIEQASPYLIANNGAVVWDLKRNSYLNKQTLSLSDFDLIDHINQTLNQLNHEYGCILYGLNDQVYFYHIHAPDSQAFKQYFAFYEGEFVQNQYLEIDGLKTEYNLVKAIWFFKEVHQQKAVIAQHFTNQERLVITSAHSFELVPLNVSKGHAINLIKQQVKITDNQIMVLGDSYNDLPMFQHGVVKVTNHLAPDNLKQLATRVYELPASLFVGQALNDYFKFD | not soluble
11 | MAKPVVIGSRSFRTQSSALDHYKALLHRYQDGQRIADPADHTDLVALIERFDPVLDAVGEPAKGAGQIAHFERRLNTGIGWSTPGFWVVRQDGTETDFSYIDAVKGRPKGRSQDFYNACRQAVALDLVLAKKQAFAQYGDDQGRVECELTGKMVTIDDAHLDHAWPYFSHMVSGFRAARGWSRDIPDGIVSTPADGQTTATFLDSAVTEAFRAFHHDQAVLRVLSREANLQTASSARRPKVARPVRLALEHHHHHH | soluble
12 | MTATSNSAPLAGGSLSSSATAQPPQPPPGHQQQHPLPQIYDSQMQYYYGSSMPNQPIPTYTAQNGAPQQFGTPPYYQDANGQFGQVPAQQQMMTAGHPYFYMAQPQQGGQHVAQSGQPQIFYYQQPLGQMAQQAAPMYFHPMQAASTPMLSEQMSMMPQIQSTNPQQSEQLRKSGAQISTTRTVPLTSSTPLPTSREYETVQRDRNRNSQSRYQCPIEHDDLPIDEISKITIDNHNDDTMSAEKENRFNKNRVEKLGRRGFAKPEVDSQLPHNFKTRLCMTHAAGINPCALGARCKFAHGLKELRASDIPTRYPNNKYKTKLCKNFARGGSGVCPYGLRCEFVHPSDTEFQNIPPYQRKMVEEHDSIPEDYVVARYQPRFMHTSGKATTPTKVTLKQRNVAGSMMCLSNTGRDLEAGGDFNHPEINENDLPPHLRRIRRGNPPVTRSRPSFSTKWTSVENLGLRGHY | not soluble
13 | NLPDVQASKPSIAINLTRVGVTNMKKLVEIKRKDKRPIVLISTFDVFVDLPSDRKGANLSRNFEAVDEVLEKVLSTPVYEIEQLCSDIAHNLLGRHEYANQAEVRMKSEYMIRRASPSTGIKCQEVVNIFAEASAVRGNGDRDYFDVKKLIGAEVVGMTACPCAQEIMRDKAATELANLGVERDKIIKFLEKVPMATHNQRGRGIISIKVAHDFDVSLESIIKIIERSMSSSVYEVLKRSDEKVVVETAHMNPKFVEDCVRAMADNVVKEFPNLPDNAVITIKQTNEESI | not soluble
14 | MGSDKIHHHHHHMNTIEDNLNQRISARIRIERESRGWSLNDLAERAGASRAMIHKIERGESSPTASMLGRLSGAFGISMSTLIARAEMQEGKLLRFASQPVWRDPQSHYLRRHVSPRSDLPIDLVQIELPPGSDVPMPAASYALARQLIWLQQGELVFVEGNTRHEMQAGDCLELGPPNDCRFINESAETCVYLVVRLNQSPSGS | not soluble
15 | MGSDKIHHHHHHMEKGEPIVVVKEISKSYGKVEALKEVSFAVEQGEVFGLIGPDGAGKSTLFRILTTLLLADKGTATVNGLDVVTDYKQIRTKVGYMPGRFSLYQDLSVEENLEFFATVFHTLIQENYDLIKDIYQQIEPFKKRRAGALSGGMKQKLALSCSLIHKPDILFLDEPTTGVDPVSRKEFWQMLRNLRKQGITIIVSTPIMDEARQCDRIAFINHGQVHGIDTPERILQKFASILCPPPLEREEAQQMAAPVIEVEQLTKSFGHFTAVDHISFQVQRGEIFGFLGANGAGKTTAMRMLCGLSRPTSGVGKVAGYDIFREAEQVKRHIGYMSQKFSLYEDLKVWENIRLFAGIYGMKEMEIEEKTDELLERLGFADERDTLVKNLPLGWKQKLAFSVSIFHEPKIVFLDEPTGGVDPATRRQFWELIYQAADRGITVFVTTHYMDEAEYCNRISIMVDGQIKALDTPARLKEQFGVETMDDVFQQLARHAVRKAD | not soluble
16 | MKPLKRHPALIGLSRDHHHSLSLCVRLLRTPEERHRDELEPHFSELETHFREEETKFAPIWQNVAPELKQRFEKDHARLRQMMASPEYGNAAWNTAFATTLRDHARFEERELFPAAEPFLPA | not soluble
17 | SELLCHEVDPVRRAVRDRNLLRDDRVLQNLLTIEERYLPQCSYFKCVQKDIQPYMRRMVATWMLEVCEEQKCEEEVFPLAMNYLDRFLAGVPTPKSHLQLLGAVCMFLASKLKETSPLTAEKLCIYTDNSIKPQELLEWELVVLGKLKWNLAAVTPHDFIEHILRKLPQQREKLSLIRKHAQTFIALCATDFKFAMYPPSMIATGSVGAAICGLQQDEEVSSLTCDALTELLAKITNTDVDCLKACQEQIEAVLLNSLQQYRQDQRDGSKSEDELDQASTPTDVRDIDL | soluble
18 | GAMSVASLPECVKNFFPTEQLEFSSSITADEKPVLHEVFQKHSCFSQCGEMIDEVSKKHPELGKRLATVLEGNKKRLDGLSPAAVEYAKKLIHMVTTTLCSLTVGKPIDDADAKRLHQEFQSLSSEDQAALRKNNPDIKF | soluble
19 | GPGSMTQNIIRRIFGNRELPENLSGSEYERYMQENFPKWIDEFEKGGFLEATKLPAIKSERDFLSKLIEHKDEIMVVKYWKHGCIPCLSLAEMYKQVSEQCKKENRRIAWYSVNTKDVSARSLVDYQLVNGTPTVQTFSRMKQVGKEIRAISAEELMRELSLREAALNTES | soluble
20 | MGSDKIHHHHHHMILLVGGEKGGAGKSCLAQNIAVHITQKFNANVLMVDCDPQRTTSDWIQARNEDASLPAINCIQLYGKIRNDLLGLDQRFDYVIVDCGGQDNLAMRAAMSVATYVVLPLRPKRRDLKTLPHMEDMLSTCKMVNPKMVATVVMTQCPALPSQYKRILEAKEVVESFGLRVLDAVTFSRNVYDDSEEQGSSVIEIEPDGKAAAEIRAIADELFAIPPENSYELN | not soluble
21 | MGSDKIHHHHHHMPGQLKVTLLDSPNPLSKANPIHLKPLVNHCMDCRVSGLCLPTGLPVDENSCLGALIGPRMRIRKGAALFNANDPLTMLYALRCGSFKTSLNTAEGQGVVINFWMPGDVIGLDAIATEHHVCDAIALEDSEVCPVPYRRLQTLAREFPDLQQSLNRLMSREIVREHGRVLMLCNLTAEQRLASFLVGLSRRFVSRGYSAHGFMLRMSREDMASYLGLRLETVCRSVARLRALGIVDLHGRLVEILDMPALMALEQGGGECEAKGP | not soluble
22 | MHHHHHHMVGFGELKEEWRGEVVHLSWSPRAFLLKNFLSDEECDYIVEKARPKMVKSSVVDNESGKSVDSEIRTSTGTWFAKGEDSVISKIEKRVAQVTMIPLENHEGLQVLHYHDGQKYEPHYDYFHDPVNAGPEHGGQRVVTMLMYLTTVEEGGETVLPNAEQKVTGDGWSECAKRGLAVKPIKGDALMFYSLKPDGSNDPASLHGSCPTLKGDKWSATKWIHVAPIGGRH | soluble
23 | DIKVTPGTSELVEQILALLSRYLSSYIHVLNKFISHLRRVATLRFERTTLIKFVKKLRFYNDSVLSYNASEFINEGKNELDPEADSFDKVILPIASMFVKSVETFDLLNYYLTQSLQKEILSKTLNEDLTLTAESILAIDDTYNHFVKFSQWMIESLRIGSNLLDLEVVQFAIKSADEDGTNIGETDNIFLQEILPVNSEEEFQTLSAAWHSILDGKLSALDEEFDVVATKWHD | soluble
